No end group written: not given here. *: point of attachment. Biotin = O=C1N[C@H]2[C@H](CS[C@H]2CCCCC(=O)*)N1 Some results are limits rather than exact numbers.

Common to all, as to assay: G3 assay titration, immobilised GST-PDZ
Assay [1] concerns the target T1, GST-INADL PDZ domain 3 fusion protein (human), Q8NI35.
T1 chain: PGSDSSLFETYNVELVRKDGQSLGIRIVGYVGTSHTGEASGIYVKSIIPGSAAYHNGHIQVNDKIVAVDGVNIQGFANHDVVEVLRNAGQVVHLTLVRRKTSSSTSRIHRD

In assay [2] the target is T2, GST-ZO-1 PDZ domain 2 fusion protein (human).
T2 chain: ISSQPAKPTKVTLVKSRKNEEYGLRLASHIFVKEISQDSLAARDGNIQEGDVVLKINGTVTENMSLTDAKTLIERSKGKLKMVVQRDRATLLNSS

Assay [3] addresses T3, GST-KIAA1284 PDZ domain 1 fusion protein (human), Q9ULD6.
T3 chain: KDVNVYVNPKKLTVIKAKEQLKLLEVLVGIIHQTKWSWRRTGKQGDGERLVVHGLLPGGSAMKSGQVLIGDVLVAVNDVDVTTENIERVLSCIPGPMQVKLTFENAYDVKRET

In assay [4] the target is T4, GST-LIM mystique PDZ domain 1 fusion protein (human), Q96JY6.
T4 chain: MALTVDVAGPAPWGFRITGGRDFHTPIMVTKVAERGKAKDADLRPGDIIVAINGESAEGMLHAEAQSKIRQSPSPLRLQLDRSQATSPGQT

Assay [5] addresses T5, GST-MAST2 PDZ domain 1 fusion protein (human), Q6P0Q8.
T5 chain: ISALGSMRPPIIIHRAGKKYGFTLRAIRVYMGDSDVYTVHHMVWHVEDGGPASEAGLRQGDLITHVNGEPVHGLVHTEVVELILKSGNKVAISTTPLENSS

Assay [6] deals with T6, GST-MINT1 PDZ domain 1 fusion protein (human).
T6 chain: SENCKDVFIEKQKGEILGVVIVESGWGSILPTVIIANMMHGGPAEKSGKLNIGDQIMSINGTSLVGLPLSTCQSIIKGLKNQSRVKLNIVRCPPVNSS

The target of assay [7] is T7, GST-MINT1 PDZ domain 2 fusion protein (human).
T7 chain: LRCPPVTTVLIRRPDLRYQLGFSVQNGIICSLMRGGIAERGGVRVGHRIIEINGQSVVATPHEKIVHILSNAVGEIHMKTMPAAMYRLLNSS

Assay [8] has as its target T8, GST-MINT1 PDZ domains 1,2 fusion protein (human).
T8 chain: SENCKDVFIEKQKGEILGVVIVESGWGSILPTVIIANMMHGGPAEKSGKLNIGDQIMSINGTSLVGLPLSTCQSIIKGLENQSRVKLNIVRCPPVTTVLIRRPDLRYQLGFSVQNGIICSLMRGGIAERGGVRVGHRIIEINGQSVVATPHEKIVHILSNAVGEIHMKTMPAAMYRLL

Assay [9] deals with T9, GST-MUPP1 PDZ domain 3 fusion protein (human), O75970.
T9 chain: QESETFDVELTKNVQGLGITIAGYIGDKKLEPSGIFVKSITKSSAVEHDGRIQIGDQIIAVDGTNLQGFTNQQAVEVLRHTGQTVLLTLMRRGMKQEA

The target of assay [10] is GST-PAR3 PDZ domain 3 fusion protein (human), Q8TEW0.
Chain of GST-PAR3 PDZ domain 3 fusion protein (human), Q8TEW0 (Q8TEW0 other isoform, or with tags, fused parts or gaps): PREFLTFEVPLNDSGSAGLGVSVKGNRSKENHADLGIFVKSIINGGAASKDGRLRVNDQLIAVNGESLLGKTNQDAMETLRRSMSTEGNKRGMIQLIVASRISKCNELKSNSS
For assay [11], the target named is GST-PAR3L PDZ domain 3 fusion protein (human), Q8TEW8.
Chain of GST-PAR3L PDZ domain 3 fusion protein (human), Q8TEW8 (Q8TEW8 other isoform, or with tags, fused parts or gaps): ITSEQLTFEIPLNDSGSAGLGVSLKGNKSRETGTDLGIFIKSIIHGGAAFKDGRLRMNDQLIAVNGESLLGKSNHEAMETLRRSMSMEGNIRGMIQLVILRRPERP
The target in assay [12] is T10, GST-RIM2 PDZ domain 1 fusion protein (human).
T10 chain: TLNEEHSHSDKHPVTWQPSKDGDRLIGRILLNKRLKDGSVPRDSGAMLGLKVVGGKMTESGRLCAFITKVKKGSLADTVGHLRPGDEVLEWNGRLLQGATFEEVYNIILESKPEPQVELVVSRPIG

Assay [13] concerns the target T11, GST-SITAC 18 PDZ domain 1 fusion protein (human), Q9H190.
T11 chain: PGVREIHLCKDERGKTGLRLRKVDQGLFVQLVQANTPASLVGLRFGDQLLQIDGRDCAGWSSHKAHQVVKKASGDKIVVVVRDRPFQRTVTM

Assay [14] deals with T12, GST-SITAC 18 PDZ domain 2 fusion protein (human), Q9H190.
T12 chain: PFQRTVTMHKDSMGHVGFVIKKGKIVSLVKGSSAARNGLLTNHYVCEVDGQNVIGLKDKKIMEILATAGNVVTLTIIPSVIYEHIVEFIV

Assay [15] deals with T13, GST-Syntrophin 1 alpha PDZ domain 1 fusion protein (human), Q13424.
T13 chain: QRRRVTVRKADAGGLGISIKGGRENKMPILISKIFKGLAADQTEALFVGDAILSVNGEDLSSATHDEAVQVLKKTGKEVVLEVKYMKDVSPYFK

The target in assay [16] is T14, GST-TIP1 PDZ domain 1 fusion protein (human), O14907.
T14 chain: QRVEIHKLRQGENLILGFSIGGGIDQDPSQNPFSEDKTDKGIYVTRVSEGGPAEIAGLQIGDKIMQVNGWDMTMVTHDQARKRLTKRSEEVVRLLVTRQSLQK

Biotin-YGRKKRRQRRRARSDRTIWA [Peptide #1829 (biotin-…)]: the ODmax (450 nm) in assay [1] turned out to be 1.4 OD 450 nm. Moreover, in [2], the concentration giving a half-maximal response (EC50) worked out at 7 nM and the ODmax (450 nm) worked out at 2.9 OD 450 nm.

Consider YGRKKRRQRRRSTNSVRLML (not fully specified), for which the EC50 in [1] was 120 nM; in assay [4], 90 nM; in [5], 110 nM; in assay [7], under 2000 nM; in [8], 180 nM; in assay [9], 290 nM. In addition, the half-maximal effective concentration (EC50) in assay [10] is 18 nM; in [11] it was 100 nM; in assay [12], 47 nM; in assay [13], under 1000 nM; in assay [14], 90 nM; in assay [15], 160 nM. The values for the EC50 in assay [16] and in [2] were under 1000 nM and 33 nM, respectively. For the same molecule, the ODmax (450 nm) is 1.9 OD 450 nm in assay [1]; 0.63 OD 450 nm in assay [3]; 2.1 OD 450 nm in [4]; 2.1 OD 450 nm in assay [5]; 0.33 OD 450 nm in [6]; 0.76 OD 450 nm in [7]. Further, the ODmax (450 nm) in assay [8] was found to be 1.9 OD 450 nm; in [9] it was 2.06 OD 450 nm; in assay [10] it was 2.5 OD 450 nm; in assay [11] it was 1.97 OD 450 nm; in [12] it was 2.1 OD 450 nm; in assay [13] it was 1.7 OD 450 nm. The ODmax (450 nm) turned out to be 1.95 OD 450 nm in assay [14], 2.05 OD 450 nm in assay [15], 1.82 OD 450 nm in [16] and 2.2 OD 450 nm in [2].

With Biotin-YGRKKRRQRRRARGDRKYIV [Peptide #1838 (biotin-…)], in [1], the EC50 is under 100 nM and the ODmax (450 nm) is 2.6 OD 450 nm. Besides, in assay [2], the EC50 is under 100 nM and the ODmax (450 nm) was 2.6 OD 450 nm.

In turn, Biotin-YGRKKRRQRRRARGRRETWV [Peptide #1854 (biotin-…)] registered an EC50 in [1] of under 20 nM. In addition, the ODmax (450 nm) in assay [1] amounted to 2.1 OD 450 nm; in [2], 2.8 OD 450 nm.

In the case of Biotin-YGRKKRRQRRRARSDRTIIA [Peptide #1830 (biotin-…)], in assay [1], the EC50 was under 2000 nM and the ODmax (450 nm) is 1.2 OD 450 nm. In assay [2], this molecule showed an EC50 of under 20 nM and an ODmax (450 nm) of 1.8 OD 450 nm.

In assay [1], Biotin-YGRKKRRQRRRARGDRLVSL [Peptide #1843 (biotin-…)] returned a half-maximal effective concentration (EC50) of under 2000 nM and an ODmax (450 nm) of 1.2 OD 450 nm. Further, in [2], the EC50 was 17 nM and the ODmax (450 nm) worked out at 2.2 OD 450 nm.

Take Biotin-YGRKKRRQRRRSRTDRKYWA [Peptide #1832 (biotin-…)]: the EC50 in assay [1] was 200 nM; in [2], under 20 nM. Also, the ODmax (450 nm) in assay [1] was 0.6 OD 450 nm; in [2] it was 2.1 OD 450 nm.

For Biotin-YGRKKRRQRRREKHFRETEV [Peptide #AA353 (biotin-…)], in assay [16], the EC50 is under 2 nM and the ODmax (450 nm) amounted to 3 OD 450 nm.

The molecule Biotin-YGRKKRRQRRRARTDRKVEV [Peptide #1837 (biotin-…)] displayed an ODmax (450 nm) in assay [1] of 0.37 OD 450 nm. Further, in [2], the EC50 is under 20 nM and the ODmax (450 nm) worked out at 1.8 OD 450 nm.

In [1], Biotin-YGRKKRRQRRRSRTDRKYQI [Peptide #1839 (biotin-…)] showed an EC50 of 130 nM and an ODmax (450 nm) of 1.6 OD 450 nm. Moreover, in [2], the EC50 is under 20 nM and the ODmax (450 nm) amounted to 2.5 OD 450 nm.

Regarding Biotin-YGRKKRRQRRRQDERRLIVL [Peptide #1842 (biotin-…)], in assay [1], the EC50 was under 1000 nM and the ODmax (450 nm) was 1.9 OD 450 nm. In [2], this molecule registered a 50% effective concentration (EC50) of 35 nM and an ODmax (450 nm) of 2.3 OD 450 nm.

Turning to Biotin-YGRKKRRQRRRARGDRYRIV [Peptide #1845 (biotin-…)], the concentration giving a half-maximal response (EC50) in [1] and in assay [2] was under 100 nM throughout. The values for the ODmax (450 nm) in assay [1] and in assay [2] were 2.2 OD 450 nm and 2.3 OD 450 nm, respectively.

Consider Biotin-YGRKKRRQRRRARGDRTIIY [Peptide #1848 (biotin-…)], for which the EC50 is under 2000 nM in assay [1] and under 20 nM in [2]. Besides, the ODmax (450 nm) in [1] was 1.2 OD 450 nm; in [2], 2.2 OD 450 nm.

In assay [1], Biotin-YGRKKRRQRRRARGTRLVWV [Peptide #1844 (biotin-…)] came in with a concentration for a half-maximal effect (EC50) of under 20 nM and an ODmax (450 nm) of 2.4 OD 450 nm. For the same molecule, in assay [2], the EC50 is under 20 nM and the ODmax (450 nm) worked out at 2.6 OD 450 nm.

For Biotin-YGRKKRRQRRRARGDRKIRV [Peptide #1836 (biotin-…)], in assay [1], the ODmax (450 nm) was determined as 0.3 OD 450 nm. Further, in assay [2], the EC50 was under 10 nM and the ODmax (450 nm) amounted to 2.6 OD 450 nm.

Source of the values: US20050164933A1.
